PMC4539346

Molecular target: human IgM (Calbiochem 401108) (human)
Test: SPR; IgM amine-coupled to a GLC sensor chip (about 10,000 RU, pH 5), ProteOn XP36; DBL4ζ proteins flowed at 600-18.75 nM, 25 μl/min, 25 °C, 10 mM Tris pH 7.4, 140 mM NaCl, 2 mM CaCl2, 0.005% Tween-20; 1:1 Langmuir kinetic model

Substance	Kd	koff	kon
recombinant TM284var1 DBL4ζ E1663R, R1764E (his-tagged, E. coli) (domain or fragment)	33.2 nM	0.00159 s⁻¹	49400 M⁻¹ s⁻¹
recombinant TM284var1 DBL4ζ R1764E (his-tagged, E. coli) (domain or fragment)	41.6 nM	0.00189 s⁻¹	45100 M⁻¹ s⁻¹
recombinant TM284var1 DBL4ζ wild type (his-tagged, E. coli) (domain or fragment)	66.2 nM	0.0118 s⁻¹	179000 M⁻¹ s⁻¹
recombinant TM284var1 DBL4ζ E1663R (his-tagged, E. coli) (domain or fragment)	115 nM	0.0148 s⁻¹	129000 M⁻¹ s⁻¹
recombinant TM284var1 DBL4ζ E1663R, E1665R, R1764E, E1779K (his-tagged, E. coli) (domain or fragment)	41.2 nM	0.00254 s⁻¹	61600 M⁻¹ s⁻¹
